From IntAct's records for PubMed 20462497

B1: Interleukin-10 receptor subunit beta (Homo sapiens), Q08334 (parent)
chain: MAWSLGSWLGGCLLVSALGMVPPPENVRMNSVNFKNILQWESPAFAKGNLTFTAQYLSYRIFQDKCMNTTLTECDFSSLSKYGDHTLRVRAEFADEHSDWVNITFCPVDDTIIGPPGMQVEVLADSLHMRFLAPKIENEYETWTMKNVYNSWTYNVQYWKNGTDEKFQITPQYDFEVLRNLEPWTTYCVQVRGFLPDRNKAGEWSEPVCEQTTHDETVPSWMVAVILMASVFMVCLALLGCFALLWCVYKKTKYAFSPRNSLPQHLKEFLGHPHHNTLLFFSFPLSDENDVFDKLSVIAEDSESGKQNPGDSCSLGTPPGQGPQS
B2: Interleukin-10 receptor subunit beta (Homo sapiens), Q08334 (parent)
chain: B1 chain
partner: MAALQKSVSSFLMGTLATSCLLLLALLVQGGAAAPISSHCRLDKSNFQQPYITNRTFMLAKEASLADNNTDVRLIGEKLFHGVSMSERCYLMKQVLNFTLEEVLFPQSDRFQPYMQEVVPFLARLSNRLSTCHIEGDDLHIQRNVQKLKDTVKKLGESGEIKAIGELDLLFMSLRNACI

Variants of: B1
Conditions: with il10_human IL10, P22301
Chain of il10_human IL10, P22301 (P22301 whole entry): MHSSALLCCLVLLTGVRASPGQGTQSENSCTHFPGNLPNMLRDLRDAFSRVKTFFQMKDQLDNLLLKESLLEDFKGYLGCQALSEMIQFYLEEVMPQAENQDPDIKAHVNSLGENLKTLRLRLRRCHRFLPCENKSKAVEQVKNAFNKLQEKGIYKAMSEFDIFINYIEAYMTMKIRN
MAWSLGSWLGGCLLVSALGMVPPPENVRMNSVNFKNILQWESPAFAKGNLTFTAQYLSYRIFQDKCMNTTLTECDFSSLSKAGDHTLRVRAEFADEHSDWVNITFCPVDDTIIGPPGMQVEVLADSLHMRFLAPKIENEYETWTMKNVYNSWTYNVQYWKNGTDEKFQITPQYDFEVLRNLEPWTTYCVQVRGFLPDRNKAGEWSEPVCEQTTHDETVPSWMVAVILMASVFMVCLALLGCFALLWCVYKKTKYAFSPRNSLPQHLKEFLGHPHHNTLLFFSFPLSDENDVFDKLSVIAEDSESGKQNPGDSCSLGTPPGQGPQS [Y82A] was tested, and the “effect of a mutation on the interaction” value was “decreasing interaction”.

Variants of: B2
Conditions: with il22_human IL22, Q9GZX6
With MAWSLGSWLGGCLLVSALGMVPPPENVRMNSVNFKNILQWESPAFAKGNLTFTAQYLSYRIFQDKCMNTTLTECDFSSLSKAGDHTLRVRAEFADEHSDWVNITFCPVDDTIIGPPGMQVEVLADSLHMRFLAPKIENEYETWTMKNVYNSWTYNVQYWKNGTDEKFQITPQYDFEVLRNLEPWTTYCVQVRGFLPDRNKAGEWSEPVCEQTTHDETVPSWMVAVILMASVFMVCLALLGCFALLWCVYKKTKYAFSPRNSLPQHLKEFLGHPHHNTLLFFSFPLSDENDVFDKLSVIAEDSESGKQNPGDSCSLGTPPGQGPQS [Y82A] the “effect of a mutation on the interaction” value was “decreasing interaction”.
